Data taken from article PMC5638086, “Assessment of the protein interaction between coagulation factor XII and corn trypsin inhibitor by molecular docking and biochemical validation” (Journal of Thrombosis and Haemostasis, 2017).
Where two headings read alike, the source gives them in different places. Values belong to the molecule of their own block, whether it stands above or below them.

Columns and labels:
[1] = target: Full length activated FXIIa (α‐FXIIa) (UniProt P00748)
Target sequence in this assay (P00748 20-615): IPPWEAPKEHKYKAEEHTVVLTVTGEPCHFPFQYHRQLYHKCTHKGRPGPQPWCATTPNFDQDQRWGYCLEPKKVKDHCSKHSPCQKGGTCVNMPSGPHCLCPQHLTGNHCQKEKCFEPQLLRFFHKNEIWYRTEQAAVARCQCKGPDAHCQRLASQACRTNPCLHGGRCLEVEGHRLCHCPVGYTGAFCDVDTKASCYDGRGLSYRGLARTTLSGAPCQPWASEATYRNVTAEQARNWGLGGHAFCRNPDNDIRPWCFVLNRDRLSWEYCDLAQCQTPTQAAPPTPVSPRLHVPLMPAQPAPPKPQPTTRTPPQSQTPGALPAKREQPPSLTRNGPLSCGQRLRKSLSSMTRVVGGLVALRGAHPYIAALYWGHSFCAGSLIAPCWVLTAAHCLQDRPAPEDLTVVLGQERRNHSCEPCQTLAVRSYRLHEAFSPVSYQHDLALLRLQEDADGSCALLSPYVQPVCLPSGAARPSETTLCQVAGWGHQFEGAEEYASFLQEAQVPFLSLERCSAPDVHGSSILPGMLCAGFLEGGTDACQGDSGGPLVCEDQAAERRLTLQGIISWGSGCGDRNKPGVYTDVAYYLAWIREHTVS

[2] = target: Full length activated FXIIa (α‐FXIIa) (UniProt P00748); remark: listed apart in the source
α‐FXIIa [3] = target: T1, α‐FXIIa (Homo sapiens, UniProt P00748); test: α‐FXIIa enzymatic assay (S‐2302 chromogenic substrate cleavage, pNA release); format: biochemical; details: CTI variant proteins 10^−8 M to 10^−5 M, 200 μM S‐2302, 10 nM α‐FXIIa, 33 °C, initial rate of first 30 min, A405; SE of the fit, n = 3–5 independent experiments; SEM
T1 construct: purchased Enzyme Research Laboratories (Swansea, UK)
T1 sequence (P00748 373-615 limits assumed): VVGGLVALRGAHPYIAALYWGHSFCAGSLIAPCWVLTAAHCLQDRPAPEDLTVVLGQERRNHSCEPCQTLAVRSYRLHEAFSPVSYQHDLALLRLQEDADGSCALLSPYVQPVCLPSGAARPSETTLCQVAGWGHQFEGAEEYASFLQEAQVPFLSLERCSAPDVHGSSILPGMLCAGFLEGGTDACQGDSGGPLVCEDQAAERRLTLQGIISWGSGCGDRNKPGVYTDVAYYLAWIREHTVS
T1 sequence (P00748 20-372 partner limits assumed): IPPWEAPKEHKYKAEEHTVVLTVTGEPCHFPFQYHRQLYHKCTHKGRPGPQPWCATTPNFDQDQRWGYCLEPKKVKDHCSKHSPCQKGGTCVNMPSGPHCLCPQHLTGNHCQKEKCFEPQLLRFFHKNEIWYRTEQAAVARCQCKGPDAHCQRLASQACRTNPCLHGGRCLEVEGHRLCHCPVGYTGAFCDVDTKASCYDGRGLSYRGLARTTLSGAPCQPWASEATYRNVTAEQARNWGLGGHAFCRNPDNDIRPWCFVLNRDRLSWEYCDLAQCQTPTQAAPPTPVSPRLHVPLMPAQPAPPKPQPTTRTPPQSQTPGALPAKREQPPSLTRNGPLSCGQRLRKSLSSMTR
Protocol: (§1) The enzymatic activity of α‐FXIIa was measured by monitoring the amount of pNA chromophore released from substrate H‐D‐Pro‐Phe‐Arg‐pNA (S‐2302). Assays were performed in a 100‐μL volume at 33 °C in 96‐well plates in a Perkin Elmer (Seer Green, UK) Envision plate reader, and pNA release was followed over a period of 6 h by reading the absorbance at 405 nm. Absorbance values were converted to pNA concentrations by comparison with a standard curve obtained under exactly the same instrument conditions. All absorbance values were within the linear measurement range of the instrument. Initial rates were calculated on the basis of the first 30 min of incubation. To assess the K M, concentrations of substrate peptide between 0.1 mM and 0.6 mM were incubated with 10 nM α‐FXIIa, enzymatic activity was measured as described above, and data were analyzed by non‐linear regression with the Michaelis–Menten algorithm (GRAPHPAD PRISM, version 6.04). To assess the inhibitory mechanism of CTI, 30 nM CTI was incubated with these same concentrations of substrate peptide, the reaction was initiated by the addition of 10 nM α‐FXIIa, enzymatic activity was measured as described above, and data were analyzed by non‐linear regression with the Michaelis–Menten algorithm (GRAPHPAD PRISM, version 6.04) and by linear regression after Lineweaver–Burk transformation. To assay inhibitors, concentrations of CTI variant proteins between 10^−8 M and 10^−5 M or concentrations of peptides between 10^−6 M and 10^−3 M were incubated with 200 μM substrate peptide, the reaction was initiated by addition of 10 nM α‐FXIIa, enzymatic activity was measured as described above, and IC50 values were determined by non‐linear regression analysis (GRAPHPAD PRISM, version 6.04) using the log[inhibitor] versus response – variable slope algorithm with a bottom constraint.

FVIIa = details: cited from earlier work
thrombin = details: previous reports; cited from earlier work
FXIa = details: previous reports; cited from earlier work
kallikrein = details: cited from earlier work
Excerpt: (§2) The canonical docking pose that we observed for FXIIa–CTI is similar to the trypsin–CTI and HGFA–CTI complexes predicted by CLUSPRO, albeit that there are fewer interactions overall for trypsin and HGFA, owing to Asp60A (H1 pocket) being absent in these proteases.

FIXa = details: cited from earlier work
Excerpt: as §2

α‐FXIIa [4] = target: T1, α‐FXIIa; test: Kinetic analysis of the CTI inhibitory mechanism (Michaelis–Menten / Lineweaver–Burk, S‐2302); format: biochemical; details: 0.1 to 0.6 mM substrate peptide, 10 nM α‐FXIIa
Protocol: as §1
Figure S3: analysis of CTI inhibitory mechanism
0.1 to 0.6 mM of substrate peptide was incubated without (open symbols) or with 30 nM CTI (closed symbols), after which 10 nM α -FXIIa (equalling to 1 pmol of enzyme) was added and enzyme activity was measured as described in the method section. Data were analysed by non-linear regression (top left panel) and linear regression after Lineweaver Burk […]

[5] = target: Full length activated FXIIa (α‐FXIIa) (UniProt P00748); remark: listed apart in the source

B1: CTI(21–43) synthetic peptide (peptide)
peptide: RWYVTSRTAGIGPRLPWPELKRR
IC50 of inhibition of α‐FXIIa enzymatic activity (S‐2302 cleavage) [1]: 460 µM
pIC50 of inhibition of α‐FXIIa enzymatic activity (S‐2302 cleavage) [1]: 3.34

B2: CTI(21–42) synthetic peptide (peptide)
peptide: RWYVTSRTAGIGPRLPWPELKR
IC50 of inhibition of α‐FXIIa enzymatic activity (S‐2302 cleavage) [1]: 200 µM
pIC50 of inhibition of α‐FXIIa enzymatic activity (S‐2302 cleavage) [1]: 3.7

The next lines start with results.

IC50 of inhibition of α‐FXIIa enzymatic activity (S‐2302 cleavage) [1]: 1100 µM
pIC50 of inhibition of α‐FXIIa enzymatic activity (S‐2302 cleavage) [1]: 2.94
B3: CTI(23–43) synthetic peptide (peptide)
peptide: YVTSRTAGIGPRLPWPELKRR

pIC50 of inhibition of α‐FXIIa enzymatic activity (S‐2302 cleavage) [2]: 6.95
pIC50 ± SE (α‐FXIIa [3]): 6.97 ± 0.04
Inhibitory mechanism (α‐FXIIa [4]; 30 nM CTI): competitive inhibitory mechanism
Ki (α‐FXIIa [4]; 30 nM CTI, Fig. S3): 0.029 ± 0.004 µM
IC50 of inhibition of α‐FXIIa enzymatic activity (S‐2302 cleavage) [5]: 0.11 µM
pIC50 of inhibition of α‐FXIIa enzymatic activity (S‐2302 cleavage) [5]: 6.97
B4: commercial corn trypsin inhibitor (CTI) (natural protein)
chain: SAGTSCVPGWAIPHNPLPSCRWYVTSRTCGIGPRLPWPELKRRCCRELADIPAYCRCTALSILMDGAIPPGPDAQLEGRLEDLPGCPREVQRGFAATLVTEAECNLATIS
Inhibition of FVIIa, in words (FVIIa): does not inhibit
Inhibition of thrombin, in words (thrombin): does not inhibit
Inhibition of FXIa, in words (FXIa): weakly inhibits
Inhibition of kallikrein, in words (kallikrein): does not inhibit
Inhibition of FIXa, in words (FIXa): does not inhibit
kcat (α‐FXIIa [4]; in the presence of 30 nM CTI, Fig. S3): 15 ± 2
Km (α‐FXIIa [4]; in the presence of 30 nM CTI, Fig. S3, read-out: Km app): 301 ± 72 µM
